This assay addresses T1, native human C1q (CompTech) (human, UniProt P02745 23-245; P02746 28-253; P02747 29-245).
T1 construct: the three subunits are from general knowledge; also called hC1q
As to the kind of experiment: SPR (BIACORE T200, 37 C, pH 7.4), hC1r2s2 captured by immobilised IPN009VH2Vk3-SG1148, hC1q 100 nM then buffer, response normalised to C1r2s2 = 100 RU. The text has this: As the amount of capture, 200 resonance unit (RU) was aimed. […] The sensor surface was regenerated every cycle, using 3 M MgCl₂ (prepared in-house). The sensorgrams were obtained using BIACORE® T200 evaluation software, version 2.0 (Cytiva). […] For comparison of these sensorgrams, binding response of C1r2s2 was normalized as 100 RU.

T1 sequence (P02745 23-245 limits assumed, chain 1 of 3): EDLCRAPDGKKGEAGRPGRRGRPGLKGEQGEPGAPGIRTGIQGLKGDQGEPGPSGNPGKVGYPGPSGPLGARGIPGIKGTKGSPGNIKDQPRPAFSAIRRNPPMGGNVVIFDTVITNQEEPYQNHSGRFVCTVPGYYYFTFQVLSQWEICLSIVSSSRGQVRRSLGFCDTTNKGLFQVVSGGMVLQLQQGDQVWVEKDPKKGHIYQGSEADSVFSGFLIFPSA
T1 sequence (P02746 28-253 limits assumed, chain 2 of 3): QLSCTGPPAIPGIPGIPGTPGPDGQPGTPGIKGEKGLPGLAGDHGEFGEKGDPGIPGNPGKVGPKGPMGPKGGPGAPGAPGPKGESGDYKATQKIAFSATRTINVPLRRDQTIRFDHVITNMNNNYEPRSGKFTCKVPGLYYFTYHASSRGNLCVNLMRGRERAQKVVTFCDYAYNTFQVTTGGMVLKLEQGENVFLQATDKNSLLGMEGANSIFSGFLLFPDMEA
T1 sequence (P02747 29-245 limits assumed, chain 3 of 3): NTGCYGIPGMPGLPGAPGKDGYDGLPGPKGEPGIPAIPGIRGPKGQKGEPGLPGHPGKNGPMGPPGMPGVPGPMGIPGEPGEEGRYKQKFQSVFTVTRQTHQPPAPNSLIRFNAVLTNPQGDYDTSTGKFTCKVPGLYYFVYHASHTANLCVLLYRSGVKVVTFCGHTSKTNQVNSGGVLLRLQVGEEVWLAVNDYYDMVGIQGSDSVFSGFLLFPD

B1: recombinant human C1r2s2 tetramer (other)
chain 1: EPTMYGEILSPNYPQAYPSEVEKSWDIEVPEGYGIHLYFTHLDIELSENCAYDSVQIISGDTEEGRLCGQRSSNNPHSPIVEEFQVPYNKLQVIFKSDFSNEERFTGFAAYYVATDINECTDFVDVPCSHFCNNFIGGYFCSCPPEYFLHDDMKNCGVNCSGDVFTALIGEIASPNYPKPYPENSRCEYQIRLEKGFQVVVTLRREDFDVEAADSAGNCLDSLVFVAGDRQFGPYCGHGFPGPLNIETKSNALDIIFQTDLTGQKKGWKLRYHGDPMPCPKEDTPNSVWEPAKAKYVFRDVVQITCLDGFEVVEGRVGATSFYSTCQSNGKWSNSKLKCQPVDCGIPESIENGKVEDPESTLFGSVIRYTCEEPYYYMENGGGGEYHCAGNGSWVNEVLGPELPKCVPVCGVPREPFEEKQRIIGGSDADIKNFPWQVFFDNPWAGGALINEYWVLTAAHVVEGNREPTMYVGSTSVQTSRLAKSKMLTPEHVFIHPGWKLLEVPEGRTNFDNDIALVRLKDPVKMGPTVSPICLPGTSSDYNLMDGDLGLISGWGRTEKRDRAVRLKAARLPVAPLRKCKEVKVEKPTADAEAYVFTPNMICAGGEKGMDSCKGDSGGAFAVQDPNDKTKFYAAGLVSWGPQCGTYGLYTRVKNYVDWIMKTMQENSTPRED
chain 2: SIPIPQKLFGEVTSPLFPKPYPNNFETTTVITVPTGYRVKLVFQQFDLEPSEGCFYDYVKISADKKSLGRFCGQLGSPLGNPPGKKEFMSQGNKMLLTFHTDFSNEENGTIMFYKGFLAYYQAVDLDECASRSKLGEEDPQPQCQHLCHNYVGGYFCSCRPGYELQEDRHSCQAECSSELYTEASGYISSLEYPRSYPPDLRCNYSIRVERGLTLHLKFLEPFDIDDHQQVHCPYDQLQIYANGKNIGEFCGKQRPPDLDTSSNAVDLLFFTDESGDSRGWKLRYTTEIIKCPQPKTLDEFTIIQNLQPQYQFRDYFIATCKQGYQLIEGNQVLHSFTAVCQDDGTWHRAMPRCKIKDCGQPRNLPNGDFRYTTTMGVNTYKARIQYYCHEPYYKMQTRAGSRESEQGVYTCTAQGIWKNEQKGEKIPRCLPVCGKPVNPVEQRQQIIGGQKAKMGNFPWQVFTNIHGRGGGALLGDRWILTAAHTLYPKEHEAQSNASLDVFLGHTNVEELMKLGNHPIRRVSVHPDYRQDESYNFEGDIALLELENSVTLGPNLLPICLPDNDTFYDLGLMGYVSGFGVMEEKIAHDLRFVRLPVANPQACENWLRGKNRMDVFSQNMFCAGHPSLKQDACQGDAGGVFAVRDPNTDRWVATGIVSWGIGCSRGYGFYTKVLNYVDWIKKEMEEED
notes: C1s and C1r co-expressed in HEK293 and purified from the supernatant as tetramer; also called hC1r2s2
In the case of B1, the binding result was “binds”.

The values above are taken from patent publication US20240287163A1 (Chugai, published 2024).
